From patent US20260008852A1 (CRYSTAL BIOSCIENCE, published 2026)

T1: B7-H3 on CHO-K1 cells stably transfected with B7-H3 (GenScript #M00536) (UniProt Q5ZPR3 29-534, limits assumed)
T1 sequence (looked up): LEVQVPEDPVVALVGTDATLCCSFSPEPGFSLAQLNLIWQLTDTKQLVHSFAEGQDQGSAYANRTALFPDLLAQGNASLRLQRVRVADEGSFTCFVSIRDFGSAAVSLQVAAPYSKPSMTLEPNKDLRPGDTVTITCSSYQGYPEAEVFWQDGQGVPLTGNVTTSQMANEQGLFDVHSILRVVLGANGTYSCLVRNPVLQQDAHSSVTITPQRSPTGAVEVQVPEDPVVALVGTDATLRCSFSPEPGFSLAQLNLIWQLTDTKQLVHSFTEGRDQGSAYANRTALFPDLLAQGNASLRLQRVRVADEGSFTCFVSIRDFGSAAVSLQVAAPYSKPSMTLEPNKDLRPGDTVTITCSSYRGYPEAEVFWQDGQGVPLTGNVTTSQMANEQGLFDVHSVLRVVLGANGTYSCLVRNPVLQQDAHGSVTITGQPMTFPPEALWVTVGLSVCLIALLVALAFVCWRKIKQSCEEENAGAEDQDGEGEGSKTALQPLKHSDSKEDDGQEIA

T2: His-tagged human B7-H3 (human, UniProt Q5ZPR3-2 29-245, limits assumed)
T2 construct: Bought His-tagged protein coated on the ELISA plate; also called hu B7-H3; CD276
T2 sequence (looked up): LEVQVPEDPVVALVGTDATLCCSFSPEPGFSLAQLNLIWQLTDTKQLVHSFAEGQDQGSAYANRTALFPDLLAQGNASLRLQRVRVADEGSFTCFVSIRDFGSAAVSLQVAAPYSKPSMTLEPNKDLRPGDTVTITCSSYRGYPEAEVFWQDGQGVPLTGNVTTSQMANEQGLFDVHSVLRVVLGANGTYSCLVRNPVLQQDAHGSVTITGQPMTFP

T3: His-tagged mouse B7-H3 (mouse, UniProt Q8VE98 29-244, limits assumed)
T3 construct: Bought His-tagged protein coated on the ELISA plate; also called mu B7-H3; murine B7-H3
T3 sequence (looked up): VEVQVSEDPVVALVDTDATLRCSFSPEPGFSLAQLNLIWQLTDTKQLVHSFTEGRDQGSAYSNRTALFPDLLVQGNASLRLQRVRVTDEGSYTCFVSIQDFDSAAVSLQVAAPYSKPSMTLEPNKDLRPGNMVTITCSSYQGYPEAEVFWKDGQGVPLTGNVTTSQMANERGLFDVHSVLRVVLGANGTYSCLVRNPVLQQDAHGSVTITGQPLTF

T4: His-tagged cynomolgus monkey B7-H3 (cynomolgus monkey)
T4 chain: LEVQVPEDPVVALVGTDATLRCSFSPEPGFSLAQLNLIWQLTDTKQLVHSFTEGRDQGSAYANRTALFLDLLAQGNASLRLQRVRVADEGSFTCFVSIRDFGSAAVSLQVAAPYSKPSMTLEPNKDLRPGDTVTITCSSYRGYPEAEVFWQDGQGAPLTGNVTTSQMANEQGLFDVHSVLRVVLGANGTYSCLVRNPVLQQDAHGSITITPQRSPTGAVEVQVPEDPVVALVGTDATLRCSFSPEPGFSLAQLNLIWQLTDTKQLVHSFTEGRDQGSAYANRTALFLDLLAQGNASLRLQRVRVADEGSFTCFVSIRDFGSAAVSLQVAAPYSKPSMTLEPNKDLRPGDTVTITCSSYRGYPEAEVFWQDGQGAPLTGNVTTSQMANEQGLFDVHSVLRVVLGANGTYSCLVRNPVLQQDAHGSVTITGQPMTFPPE

T5: B7-H3 on B7-H3-expressing CHO cells (Genescript) (UniProt Q5ZPR3 29-534, limits assumed)
T5 construct: whole, on cells; also called CHO-K1/B7-H3; MFI B7-H3
T5 sequence (looked up): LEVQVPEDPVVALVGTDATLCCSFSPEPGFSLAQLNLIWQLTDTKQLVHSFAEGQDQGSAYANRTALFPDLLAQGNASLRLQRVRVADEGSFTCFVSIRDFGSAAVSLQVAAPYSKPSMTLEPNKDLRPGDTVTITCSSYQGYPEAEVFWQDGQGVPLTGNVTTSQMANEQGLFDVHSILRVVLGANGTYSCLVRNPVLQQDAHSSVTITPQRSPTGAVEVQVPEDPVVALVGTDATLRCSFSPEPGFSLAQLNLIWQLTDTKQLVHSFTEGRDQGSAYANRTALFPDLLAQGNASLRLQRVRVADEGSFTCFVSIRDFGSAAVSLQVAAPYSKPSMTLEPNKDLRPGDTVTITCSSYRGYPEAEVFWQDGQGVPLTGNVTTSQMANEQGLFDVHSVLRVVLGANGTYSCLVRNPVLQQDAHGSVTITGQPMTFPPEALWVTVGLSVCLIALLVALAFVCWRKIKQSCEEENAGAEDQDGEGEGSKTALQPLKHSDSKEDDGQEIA


Experiments:
[1] = target: T1, B7-H3 on CHO-K1 cells stably …; assay: cell-based or functional assay
His-tagged human B7-H3 [2] = target: T2, His-tagged human B7-H3; assay: ELISA OD450 on hu B7-H3 over OD450 on mu B7-H3
Procedure: (§1) The variable regions of heavy and light chains were cloned and assembled into a single chain Fv-Fc (ScFv-Fc) mammalian expression vector. Sanger sequencing was performed by GeneWiz and sequences were evaluated using DNASTAR Lasergene 15. Unique scFv-Fes were transiently expressed in Expi293 cells (Life Technologies, #A14527) grown in Expi293 Expression Medium (Life Technologies, #A1435101) after transfection using the ExpiFectamine transfection reagent and supplements (Life Technologies, #A14524). Cells were incubated for 3-5 days with shaking at 37° C. in a 5% CO2 humidified incubator.

His-tagged human B7-H3 [3] = target: T2, His-tagged human B7-H3; assay: ELISA, coated His-tagged antigen, scFv-Fc 1 ug/ml
Procedure: as §1

His-tagged mouse B7-H3 = target: T3, His-tagged mouse B7-H3; assay: ELISA, coated His-tagged antigen, scFv-Fc 1 ug/ml
Procedure: as §1

[4] = target: T4, His-tagged cynomolgus monkey B7-H3; assay: ELISA, coated His-tagged antigen, scFv-Fc 1 ug/ml
Procedure: as §1

[5] = target: T5, B7-H3 on B7-H3-expressing CHO cells …; assay: flow cytometry, B7-H3-expressing CHO cells, 10 ug/ml
Procedure: Binding of anti-B7-H3 antibodies to cell lines was assessed by flow cytometry. Briefly, approximately 1.5 e5 B7-H3-expressing CHO cells (Genescript) or parent CHO cells (ATCC) were resuspended in FACS buffer (PBS/1% BSA/0.01% NaN3) containing 10 μg/ml of anti-B7-H3 antibodies and incubated for 60 min on ice. […] Cells were then washed twice, resuspended in FACS buffer, and read on an Attune Flow Cytometer (Life Technologies). Data are expressed as Mean Fluorescent Intensities (MFI).

Row | ADCC reporter assay, EC50 Value, CHOK1/B7-H3 cells [1] [ng/mL] | ADCC reporter assay, Max RLU, CHOK1/B7-H3 cells [1] [RLU] | hu:mu ratio (His-tagged human B7-H3 [2]) | ELISA OD450 @ 1 ug/ml (His-tagged human B7-H3 [3]) [OD450] | ELISA OD450 @ 1 ug/ml (His-tagged mouse B7-H3) [OD450] | ELISA OD450 @ 1 ug/ml [4] [OD450] | MFI @ 10 ug/ml [5] [MFI] | Binder
1 | 108 | 510000 | – | – | – | – | – | 40633p1.2.D11 IgG (antibody, V domains shown) VH: EVQLESGGGLVQPGGSLRLSCAASGFTVSYYGMSWVRQAPGKGLEWVSAIKQDGSEKYYADSVKGRFTISRDNSKNTLYLQMNSLRAEDTAVYYCARHWNDYSNAMNVWGQGTTVTVSS VL: QSVLTQPPSASGTPGQRVTISCSGSTSNIAIDFVNWYQQLPGTAPKLLIYTIDQRPSGVPDRFSGSKSGTSASLAISGLQSEDEAVYYCASWDASLNGWVFGRGTKLTVL
2 | – | – | 1.87 | 1.9 | 1.02 | 2.27 | 34100 | 40511p1.1.A1 (scFv, V domains shown, Tested as scFv-Fc (Expi293 supernatant)) VH: DVQLVESGGGVVRPGESLRLSCAASGFTFSNYAMNWVRQAPGEGLEWVSRINYKGYNITYYADSVKGRFTISRDNSKNTLYLQMNSLRAEDTAVYYCAKSGSNSNNFFDYWGLGTLVTVSS VL: EIVLTQSPGTLSVSPGERATLSCRASQSVNSKLAWYQQRPGQAPRLLIYDASSRATGIPDRFSGSGSGTDFTLTISRLEPEDFAVYYCQQYKNWPPLTFGGGTKVEIK
3 | – | – | 1.32 | 2.02 | 1.53 | 2.28 | 64500 | 40579p1.F7 (scFv, V domains shown, Tested as scFv-Fc (Expi293 supernatant)) VH: EVQLLESGGGLVQPGGSLRLSCAASGFTFSDYYMSWVRQAPGKGLEWVSGISISYGGNAYYADSVKGRFTVSRDNSKNTLYLQMNSLRAEDTAVYYCGRDRSPYQYRSMDVWGQGTTVTVSS VL: EIVLTQSPGTLSLSPGERATLTCRASQSVGDFLAWYQQKPGQAPRLLIYGASTRAAGIPARFRGSGSGTDFTLTISSLQSEDFAVYYCQQYKNWPPLTFGGGTKVEIK
4 | – | – | 1.28 | 1.49 | 1.17 | 1.7 | 67600 | 40579p1.H6 (scFv, V domains shown, Tested as scFv-Fc (Expi293 supernatant)) VH: EVQLLESGGGLVQPGGSLRLSCAASGFTVNNAWMSWVRQAPGKGLEWVSAISYGGSIYYADSVKGRFTISRDNSKNTLYLQMNSLRAEDTAVYYCAKHRSTTYNGMDVWGQGTTVTVSS VL: EIVLTQSPGTLSLSPGERATLSCRASQSVGSFLAWYQQKPGQAPRLLIYGANTRAAGIPDRFRGSGNGTDFTLTISSLQSEDFAVYYCQQYYDWPPLTFGGGTKVEIK
5 | – | – | 1.49 | 1.88 | 1.26 | 1.62 | 67800 | 40633p1.1.A6 (scFv, V domains shown, Tested as scFv-Fc (Expi293 supernatant)) VH: EVQLLESGGGLVQPGGSLRLSCAASGFSFSNYDMSWVRQAPGKGLEWVAGIRSGSRTYYADSVKGRFTISRDNSKNTLYLQMNSLRAEDTATYYCGRYFNMDVWGQGTTVTVSS VL: QSVLTQPPSASGTPGQRVTISCSGSTFNIGTNLVHWYQQLPGTAPKLLIYLTDRRPSGVPDRFSGSKSGTSASLAISGLQSEDEANYYCATWDDSLNSFLFGGGTKLTVL
6 | – | – | 1.36 | 1.95 | 1.44 | 2.17 | 89200 | 40579p1.E5 (scFv, V domains shown, Tested as scFv-Fc (Expi293 supernatant)) VH: EVQLLESGGGLVQPGGSLRLSCAASGFTFSDDWMTWVRQAPGKGLEWVSAINWNGNSTHYADSVKGRFTVSRDNSKNTLYLQMNSLRAEDTAVYYCAKSRTTYYSSMDVWGQGTTVTVSS VL: EIVLTQSPGTLSLSPGERATLSCRASQTVGSYLAWYQQKPGQAPRLLIYGASSRATGIPARFSGSGSGTDFTLTISSLQSEDFAVYYCQHYYDWPPYSFGGGTKVEIK
7 | – | – | 0.966 | 1.73 | 1.79 | 1.73 | 87100 | 40579p1.G1 (scFv, V domains shown, Tested as scFv-Fc (Expi293 supernatant)) VH: EVQLLESGGGLVQPGGSLRLSCAASGFNFSSYWMSWVRQAPGKGLEWVSGISISYGGNAYYADSVKGRFTVSRDNSKNTLYLQMNSLRAEDTAVYYCGRDRSPYQYRSMDVWGQGTTVTVSS VL: EIVLTQSPGTLSLSPGERATLSCRASQSIRSDLAWYQQKPGQAPRLLIYGASSRATGIPARFSGSGSGTEFTLTISSLQSEDFAVYYCQQYNNWPPLTFGGGTKVEIK
8 | – | – | 0.971 | 1.86 | 1.92 | 1.73 | 74600 | 40579p1.H7 (scFv, V domains shown, Tested as scFv-Fc (Expi293 supernatant)) VH: EVQLLESGGDLVQPGGSLRLSCAASGFNFSSYWMSWVRQAPGKGLEWVSGISISYGGNAYYADSVKGRFTVSRDNSKNTLYLQMNSLRAEDTAVYYCGRDRSPYQYRSMDVWGQGTTVTVSS VL: EIVLTQSPGTLSLSPGERATLSCRASQSIRSDLAWYQQKPGQAPRLLIYGASSRATGIPARFSGSGSGTEFTLTISSLQSEDFAVYYCQQYNNWPPLTFGGGTKVEIK
9 | 21.3 | 820000 | – | – | – | – | – | 40633p1.2.D7 IgG (antibody, V domains shown) VH: EVQLLESGGSLVQPGGSLRLSCAASGFTFSSYWMSWVRQAPGKGLEWVSGISSSGSATYYADSVKGRFTISRDNSKNTLYLQMNSLRAEDTAVYYCARWNDYDIMDVWGQGTTVTVSS VL: not shown
10 | – | – | – | – | – | 0.045 | 18300 | 40633p1.2.C11 (scFv, V domains shown, Tested as scFv-Fc (Expi293 supernatant)) VH: EVQLLESGGGLVQPGGSLRLSCAASGFTFSSYWMSWVRQAPGKGLEWVAGINRNGGSTYYADSVKGRFTISRDNSENTLYLQVNSLRAEDTAVYYCARWNDYDIMDVWGQGTTVTVSS VL: QSVLTQPSSASGTPGQRVTISCSGSSSNVGRRAVNWYQQLPGTAPKLLISNSQRPSGVPDRFSGSKSGTSASLAISGLQSEDEADYYCATWDASLNSWVFGGGTKLTVL
11 | – | – | 1.63 | 2.08 | 1.27 | 1.77 | 64800 | 40633p1.1.A11 (scFv, V domains shown, Tested as scFv-Fc (Expi293 supernatant)) VH: EVQLLESGGDLVQPGGSLRLSCAASGFTFNTYWMNWVRQAPGKGLEWVAGINSKGGVTYYADSVKGRFTISRDNSKNTLYLQMNSLRAEDTAVYYCADWNDYDIMDVWGQGTTVTVSS VL: QSVLTQPPSASGTPGQTITISCSGSSSNVGRRTVNWYQQLPGTAPKLLIYTNAQRPSGVPDRFSGSKSGTSASLAISGLQSEDEADYYCATWDDSLNAWVFGGGTKLTVL
